In patent US20240116985A1 (published 2024):
Starred links: 1 amine or outer side, 2 acyl side, 3 side chain; linkers in the order of their positions; H or OH if unused. Positions of bridges follow the written chain, without caps; N, C: chain ends. Non-standard residues stand in square brackets, D forms with d. Primed or numbered codes have the meaning given here. PyrS2″ = (S)-3-amino-1-((pent-4-en-1-yloxy)carbonyl)pyrrolidine-3-carboxylic acid (stapling residue), C=CCCCOC(=O)N1CC[C@@](N[*:1])(C(=O)[*:2])C1; B5(4) = 2,2-bis(4-pentenyl)glycine = 2-amino-2-(pent-4-en-1-yl)hept-6-enoic acid (stitching residue), C=CCCCC(CCCC=C)(N[*:1])C(=O)[*:2]; B5(3) = 2,2-bis(4-pentenyl)glycine (stitching residue), C=CCCCC(CCCC=C)(N[*:1])C(=O)[*:2]; AcLys″ = N6-acetyl-lysine, CC(=O)NCCCC[C@H](N[*:1])C(=O)[*:2]; Phe(3-COOH) = N[C@@H](Cc1cccc(C(=O)O)c1)C(=O)O; 2F3MeF = Cc1cccc(C[C@H](N[*:1])C(=O)[*:2])c1F; Phe(2-CF3) = N[C@@H](Cc1ccccc1C(F)(F)F)C(=O)O; AcLys = CC(=O)NCCCC[C@H](N[*:1])C(=O)[*:2]; Phe(2-Cl) = N[C@@H](Cc1ccccc1Cl)C(=O)O; Met(O2) = CS(=O)(=O)CC[C@H](N)C(=O)O; Bta = N[C@@H](Cc1csc2ccccc12)C(=O)O; Lys(iPr) = CC(C)NCCCC[C@H](N)C(=O)O; αAllylPro = C=CC[C@@]1(C(=O)O)CCCN1; tBuAla = CC(C)(C)C[C@H](N)C(=O)O; 3Thi = N[C@@H](Cc1ccsc1)C(=O)O; Cha = N[C@@H](CC1CCCCC1)C(=O)O; PyrS2(4) = not defined here; hSer = N[C@@H](CCO)C(=O)O; Nle = CCCC[C@H](N)C(=O)O

Assays:
[1] = molecular target: T1, B-cat-Halo (UniProt P35222 1-781, HaloTag NanoBRET 618 Ligand bound in the assay); assay: cell-based or functional assay
T1 sequence (looked up): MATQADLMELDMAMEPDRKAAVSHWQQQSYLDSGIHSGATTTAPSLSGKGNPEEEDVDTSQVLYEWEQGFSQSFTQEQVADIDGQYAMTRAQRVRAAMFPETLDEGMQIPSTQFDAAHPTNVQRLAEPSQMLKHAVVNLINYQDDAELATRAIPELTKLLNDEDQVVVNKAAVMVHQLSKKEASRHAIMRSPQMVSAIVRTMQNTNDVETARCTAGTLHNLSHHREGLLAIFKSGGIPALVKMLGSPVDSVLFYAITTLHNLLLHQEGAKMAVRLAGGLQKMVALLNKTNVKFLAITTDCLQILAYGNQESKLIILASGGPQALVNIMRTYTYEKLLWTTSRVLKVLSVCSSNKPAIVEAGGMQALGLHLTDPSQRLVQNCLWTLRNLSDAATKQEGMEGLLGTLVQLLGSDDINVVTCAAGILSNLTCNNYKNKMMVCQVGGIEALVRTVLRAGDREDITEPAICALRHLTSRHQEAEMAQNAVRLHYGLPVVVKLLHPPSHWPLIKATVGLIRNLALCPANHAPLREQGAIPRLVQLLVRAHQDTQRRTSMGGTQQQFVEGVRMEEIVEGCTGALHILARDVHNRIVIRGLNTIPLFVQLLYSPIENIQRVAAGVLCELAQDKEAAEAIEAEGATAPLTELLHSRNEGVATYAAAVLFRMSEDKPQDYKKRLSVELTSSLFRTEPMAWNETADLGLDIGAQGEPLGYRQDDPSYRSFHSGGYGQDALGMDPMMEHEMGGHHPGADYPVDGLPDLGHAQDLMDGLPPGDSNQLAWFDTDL

[2] = molecular target: T2, B-cat-Halo (beta-catenin HaloTag construct expressed in HEK293 cells) (UniProt P35222 1-781); assay: cell-based or functional assay
T2 sequence (looked up): T1 sequence (looked up)

B1: I-2538 (peptide)
peptide: Ac-[αAllylPro]D[tBuAla][B5(4)]D[Phe(3-COOH)]AAF[MorphGln][PyrS2″][Phe(2-CF3)][Bta][Me2Gln]-NH2
modifications: staple 1-4, 4-11; not fully specified; printed as Ac-PL3-Asp-Npg-B5-Asp-3COOHF-Ala-Ala-Phe-MorphGln-PyrS2-2F3MeF-BztA-Me2Gln-NH2
- NanoBRET Abs IC50 [1]: 3.5 µM

Binder: Ac-[αAllylPro]D[tBuAla][B5(3)]D[Phe(3-COOH)]QAFF[PyrS2″][3Thi][Bta]A-NH2 (staple 1-4, 4-11) [I-2052]
- NanoBRET Abs IC50 [2]: 6 µM

Binder: Ac-[αAllylPro]D[tBuAla][B5(4)]D[Phe(3-COOH)]AAFL[PyrS2″][Phe(2-CF3)][Bta][MorphGln]-NH2 (staple 1-4, 4-11) [I-2541]
- NanoBRET Abs IC50 [1]: 4.7 µM

B2: I-2536 (peptide)
peptide: Ac-[αAllylPro]D[tBuAla][B5(4)]D[Phe(3-COOH)]AAF[Me2Gln][PyrS2″][2F3MeF][Bta][Me2Gln]-NH2
modifications: staple 1-4, 4-11; not fully specified; printed as Ac-PL3-Asp-Npg-B5-Asp-3COOHF-Ala-Ala-Phe-Me2Gln-PyrS2-2F3MeF-BztA-Me2Gln-NH2
- NanoBRET Abs IC50 [1]: 4.5 µM

B3: I-2539 (peptide)
peptide: Ac-[αAllylPro]D[tBuAla][B5(4)]D[Phe(3-COOH)]AAF[AcLys][PyrS2″][2F3MeF][Bta][Me2Gln]-NH2
modifications: staple 1-4, 4-11; not fully specified; printed as Ac-PL3-Asp-Npg-B5-Asp-3COOHF-Ala-Ala-Phe-AcLys-PyrS2-2F3MeF-BztA-Me2Gln-NH2
- NanoBRET Abs IC50 [1]: 3.6 µM

Binder: Ac-[αAllylPro]D[tBuAla][B5(4)]D[Phe(3-COOH)]QAFL[PyrS2″][3Thi][Bta]L-NH2 (staple 1-4, 4-11) [I-2056]
- NanoBRET Abs IC50 [2]: 6.5 µM

Binder: Ac-[αAllylPro]N[Cha][B5(4)]DQQAFN[PyrS2″]F[Bta]A-NH2 (staple 1-4, 4-11) [I-2070]
- NanoBRET Abs IC50 [2]: > 20 µM

B4: I-2535 (peptide)
peptide: Ac-[αAllylPro]D[tBuAla][B5(4)]D[Phe(3-COOH)]AAF[Me2Gln][PyrS2″][2F3MeF][Bta][Me2Gln]-NH2
modifications: staple 1-4, 4-11; not fully specified; printed as Ac-PL3-Asp-Npg-B5-Asp-3COOHF-Ala-Ala-Phe-Me2Gln-PyrS2-2F3MeF-BztA-Me2Gln-NH2
- NanoBRET Abs IC50 [1]: 3.7 µM

Binder: Ac-[αAllylPro]N[Cha][B5(4)]DQQAFN[PyrS2″]F[Bta][hSer]-NH2 (staple 1-4, 4-11) [I-2067]
- NanoBRET Abs IC50 [2]: > 20 µM

Binder: Ac-[αAllylPro]N[Cha][B5(4)]DQ[Lys(iPr)]AFN[PyrS2″]F[Bta]A-NH2 (staple 1-4, 4-11) [I-2065]
- NanoBRET Abs IC50 [2]: > 20 µM

Binder: Ac-[αAllylPro]D[tBuAla][B5(4)]D[Phe(3-COOH)]AAF[Nle][PyrS2″][2F3MeF][Bta][Me2Gln]-NH2 (staple 1-4, 4-11) [I-2533]
- NanoBRET Abs IC50 [1]: 6.2 µM

Binder: Ac-[αAllylPro]D[tBuAla][B5(4)]D[Phe(3-COOH)]AAF[Nle][PyrS2″][Phe(2-CF3)][Bta][MorphGln]-NH2 (staple 1-4, 4-11) [I-2542]
- NanoBRET Abs IC50 [1]: 4 µM

Binder: Ac-[αAllylPro]N[Cha][B5(4)]DQHAFN[PyrS2″]F[Bta]A-NH2 (staple 1-4, 4-11) [I-2069]
- NanoBRET Abs IC50 [2]: > 20 µM

Binder: Ac-[αAllylPro]D[tBuAla][B5(4)]D[Phe(3-COOH)]AAFF[PyrS2″][Phe(2-CF3)][Bta][Me2Gln]-NH2 (staple 1-4, 4-11) [I-2534]
- NanoBRET Abs IC50 [1]: 4.4 µM

Binder: Ac-[αAllylPro]D[tBuAla][B5(4)]D[Phe(3-COOH)]QAFV[PyrS2″][3Thi][Bta]A-NH2 (staple 1-4, 4-11) [I-2054]
- NanoBRET Abs IC50 [2]: 2.4 µM

B5: I-2540 (peptide)
peptide: Ac-[αAllylPro]D[tBuAla][B5(4)]D[Phe(3-COOH)]AAF[AcLys″][PyrS2″][Phe(2-CF3)][Bta][Me2Gln]-NH2
modifications: staple 1-4, 4-11; not fully specified; printed as Ac-PL3-Asp-Npg-B5-Asp-3COOHF-Ala-Ala-Phe-AcLys-PyrS2-2F3MeF-BztA-Me2Gln-NH2
- NanoBRET Abs IC50 [1]: 3.5 µM

Binder: Ac-[αAllylPro]N[Cha][B5(4)]DQ[Lys(iPr)]AFN[PyrS2″]F[Bta]F-NH2 (staple 1-4, 4-11) [I-2068]
- NanoBRET Abs IC50 [2]: > 20 µM

B6: I-2055 (peptide)
peptide: Ac-[αAllylPro]D[tBuAla][B5(4)]D[Phe(3-COOH)]QAFL[PyrS2(4)][3Thi][Bta]V-NH2
modifications: staple 1-4, 4-11; reading uncertain; also: printed as Ac-PL3-Asp-Npg-B5-Asp-3COOHF-Gln-Ala-Phe-Leu-PyrS2-3Thi-BztA-Val-NH2
- NanoBRET Abs IC50 [2]: 10.5 µM

Binder: Ac-[αAllylPro]D[tBuAla][B5(4)]D[Phe(3-COOH)]AAFF[PyrS2″][Phe(2-CF3)][Bta][MorphGln]-NH2 (staple 1-4, 4-11) [I-2543]
- NanoBRET Abs IC50 [1]: 7.3 µM

B7: I-2544 (peptide)
peptide: Ac-[αAllylPro]D[tBuAla][B5(4)]D[Phe(3-COOH)]AAF[Me2Gln][PyrS2″][2F3MeF][Bta][MorphGln]-NH2
modifications: staple 1-4, 4-11; not fully specified; printed as Ac-PL3-Asp-Npg-B5-Asp-3COOHF-Ala-Ala-Phe-Me2Gln-PyrS2-2F3MeF-BztA-MorphGln-NH2
- NanoBRET Abs IC50 [1]: 4.1 µM

Binder: Ac-[αAllylPro]D[tBuAla][B5(4)]D[Phe(3-COOH)]TAFL[PyrS2″][Phe(2-CF3)][Bta]A-NH2 (staple 1-4, 4-11) [I-2060]
- NanoBRET Abs IC50 [2]: 9.6 µM

B8: I-2053 (peptide)
peptide: Ac-[αAllylPro]D[tBuAla][B5(3)]D[Phe(3-COOH)]QAFA[PyrS2(4)][3Thi][Bta]A-NH2
modifications: staple 1-4, 4-11; reading uncertain; also: printed as Ac-PL3-Asp-Npg-B5-Asp-3COOHF-Gln-Ala-Phe-Ala-PyrS2-3Thi-BztA-Ala-NH2
- NanoBRET Abs IC50 [2]: 5 µM

B9: I-2537 (peptide)
peptide: Ac-[αAllylPro]D[tBuAla][B5(4)]D[Phe(3-COOH)]AAF[MorphGln][PyrS2″][2F3MeF][Bta][Me2Gln]-NH2
modifications: staple 1-4, 4-11; not fully specified; printed as Ac-PL3-Asp-Npg-B5-Asp-3COOHF-Ala-Ala-Phe-MorphGln-PyrS2-2F3MeF-BztA-Me2Gln-NH2
- NanoBRET Abs IC50 [1]: 2.9 µM

Binder: Ac-[αAllylPro]D[tBuAla][B5(4)]D[Phe(3-COOH)]AAFL[PyrS2″][Phe(2-Cl)][Bta][Met(O2)]-NH2 (staple 1-4, 4-11) [I-2062]
- NanoBRET Abs IC50 [2]: 3 µM

Binder: Ac-[αAllylPro]D[tBuAla][B5(4)]D[Phe(3-COOH)]AAFL[PyrS2″][Phe(2-CF3)][Bta][Met(O2)]-NH2 (staple 1-4, 4-11) [I-2063]
- NanoBRET Abs IC50 [2]: 3.5 µM

Binder: Ac-[αAllylPro]D[tBuAla][B5(4)]D[Phe(3-COOH)][Met(O2)]AFL[PyrS2″][3Thi][Bta]A-NH2 (staple 1-4, 4-11) [I-2064]
- NanoBRET Abs IC50 [2]: 11.8 µM

Binder: Ac-[αAllylPro]D[tBuAla][B5(3)]D[Phe(3-COOH)]TAFL[PyrS2″][3Thi][Bta]A-NH2 (staple 1-4, 4-11) [I-2051]
- NanoBRET Abs IC50 [2]: 8.3 µM
